Experimental findings from article PMC10558600 are described below.

Assay [1] addresses Aedes aegypti membrane-bound alkaline phosphatase (Aa-mALP) (Aedes aegypti). The assay is described as follows: ELISA. In general terms: In an ELISA, binding on a coated surface is turned into a signal by an enzyme label.
Assay [2] has the same target. The assay is described as follows: ELISA. The source holds these as a separate data set.

Like-named read-outs stand apart in the source and are kept apart here.

As usually defined, the Kd is the free concentration of one partner at which half of the binding sites on the other are occupied at equilibrium, for simple one-to-one binding. In the case of “65 kDa trypsin-activated Cry4Ba-R203Q toxin (natural protein)”, the Kd was 0.0762 µM in assay [1] and 0.0765 µM in assay [2].
